Laboratory results published in the supplement of paper PMC10567573.

B1: GNAI1 (parent)
chain: WIHCFEGVTAIIFCVALSDYDLVL
B2: PDS5B (parent)
chain: ITYPPGVKEISDKISKEEMVRRLK

Variants of: B1
Test: protein stability index of a GFP-peptide fusion (GPS, HEK-293T) (PSI 1-6); higher = more stable
Details: c terminus: a fixed tail appended
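Further: lentivirally expressed fusions sorted by FACS into six bins by GFP to DsRed ratio, PSI derived from sequencing read proportions per bin multiplied by bin number.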

Protein stability index, by site and new letter:
D21: K 3.74, M 2.88, G 2.37, W 2.27, A 3.49, S 2.76, E 4.04, L 2.81, I 3.09, Y 2.41, T 4.09, F 4.12, R 2.59, C 3.01, N 3.81
D19: T 4.11, P 3.43, C 3.67, L 2.58, G 3.1, V 3.39, H 2.87, S 2.77, K 3.29, I 1.44, Q 2.96, E 3.67, F 3.69, M 1.58, A 2.02, Y 3.06
S18: V 2.2, P 2.3, L 4.7, A 1.86, W 2.62, Q 4.04, E 4.41, F 1.9, N 2.34, I 4.92, T 2.95, D 2.67
L22: P 1.98, C 1.87, H 1.34, S 3.61, A 1.82, Q 3.71, V 4.39, Y 2.52, F 2.5, W 3.57, N 1.85, M 2.77, K 3.61, D 3.04
V23: H 4, F 2.29, P 2.28, Y 3.15, T 3.6, E 2.71, R 2.89, N 3.29, I 2.7, S 2.21, C 1.55, K 3.57
L17: P 3.56, F 4.72, D 3.5, A 3.93, E 3.42, W 3.09, Y 2.83, H 2.71, R 2.51, T 2.04, N 2.67, Q 3.55, V 3.19, K 2.55
A16: H 1.78, M 2.41, Q 2.56, L 3.16, S 3.92, N 2.25, Y 4.61, G 3.14, K 4.07, V 1.64, T 3.18
Y20: S 2.35, F 3.7, M 1.56, I 3.91, Q 4.16, G 2.45, E 2.71, C 2.61, T 4.04, R 2.75, K 2.02, D 3.02, L 3.28, A 3, N 3.6, V 2.86
L24: V 2.12, E 1.42, T 3.34, Q 1.69, W 1.92, R 3.04, I 3.87, A 1.85, P 2.78, K 3.06, H 3.37, N 4.75, M 2.29, G 3.06, D 2.92, F 2.34

Variants of: B2
Test: as above
Details: c terminus: a fixed tail appended

Protein stability index of substitutions, site by site:
I10: V 4.62, P 4.27, F 4.31, N 4.68, Q 4.36
T2: S 3.72, K 3.55, I 2.83, G 4.08, L 4.14, E 3.86
I1: P 4.78, L 3.95, D 4.99, E 4.74, T 4.96, S 4.78, W 4.64
P5: F 3.79, C 3.62, K 3.74, I 4.29, H 3.67, R 3.81, W 3.15
L23: G 4.84, S 5.11, I 4.51, T 4.79, N 4.49, A 4.61, Y 3.7, M 3.78, D 5.12, W 3.1, R 4.59, V 4.29, Q 4.75
E17: L 2.59, K 3.82, A 3.14, M 2.65, H 4.17, C 2.91, Y 2, N 3.75, Q 3.17
I14: A 4.5, Q 5.02, L 4.08, M 4.34, W 3.03, C 3.27, T 4.08, R 4.38, F 3.03
V7: L 3.67, H 4.04, M 4.06, E 3.09, K 4.55, G 4.01, P 3.47, W 3.82, A 4.21
Y3: T 3.14, A 4.48, C 3.52, V 4.44, I 3.97, K 4.64, L 3.81, Q 4.97, W 2.8, S 4.43, H 4.43
G6: D 4.43, S 3.96, C 2.19, Q 3.73, Y 2.88, H 4.18
R21: K 3.34, D 4.46, E 3.69, T 4.63, F 3.85, A 2.21, I 3.41, C 3.96, S 4.45, L 4.15, M 3.97, W 4.52, H 3.77
P4: N 3.43, R 3.43, I 1.94, K 3.61, V 2.97, L 3.16
S11: K 4.72, P 4.29, L 2.38, A 3.85, M 2.35, E 4.04, F 3.3, G 3.92
E9: L 2.09, A 4.16, M 3.51, F 2.97, N 3.59, I 3.15, C 3.13, P 2.75, W 2.24, G 4.19
E18: K 3.17, C 3.86, P 3.69, M 3.12, S 3.21, L 1.84
V20: K 4.17, Y 4.2, W 3.38, G 4.59, F 3.6, M 3.81, A 3.59, C 3.74, P 4.26, D 5.06
K16: C 3.87, E 3.87, S 4.47, N 2.63, H 3.75, D 3.56, I 2.85, G 2.83, A 3.92
K24: S 3.23, W 2.72, V 3.61, C 3.13, T 4.13, N 3.77, A 3.58, L 2.81, R 4.2, D 4.78
R22: S 4.24, Y 2.95, H 3.88, N 4.54, I 2.71, F 3.85, C 2.9, G 4.72, T 4.41, A 3.76, K 3.86
D12: L 3.18, A 2.75, V 3.3, I 3.04, T 3.69, Q 3.29, G 3.15, W 2.85, Y 2.46
M19: R 4.34, C 4.1, I 4.24, G 4.29, N 4.76, K 4.54, H 4.74, S 5.02, V 4.65, A 3.68
K13: S 4.35, H 3.7, N 3.72, C 2.79, D 4.69, P 4.52, V 3.51, R 4.39, I 4.1, T 3.96
K8: Y 3.21, L 3.7, A 4.5, Q 4.29, W 3.09, C 3.31, P 3.69
S15: A 4.27, Q 3.65, R 3.7, F 2.33, Y 3.46, C 3.23, H 4.52
